The results in this text go back to the DeepSol protein solubility set.

This data set can be described thus: soluble on expression in E. coli; label from the status in PepcDB or PDB records.
On to “MGSDKIHHHHHHMDLSKIASTINMRYYSQLGGFQVGGAVSGLDTQSIINAILEAESQPLQNLTEKYEKYELMQEAYTEVKTKLREFRDLVYSFKLQSTVVQKTAVSSSSLLSAEASSVAVTGVYHVKIVQTATYTTLAGASEVVPPPDSTKTFGELDYMYTPQEGTVRLYNNETGNYVEVQVLSTDTIDDIVSKLNSALSSAGITGSVSYDTSTGKISITSDKNFSLVDITGNFTKVFHLDEASLNYSGGNYSFTSTASVSGLSTAKTLQQIATYTSKTIISGKVKINGVEIDVDQNDTLSSLIEKINDSEAGVTASYDYHANRVVIISKTSGPEAITLEDTYGTGLFSLLGIENHSLYVGQKAHLQISMDGTNWADVYSDTNDVEYNGVTFHISGMTSETITVDVRVDTDAIVEKIKEFVDKWNETMDYLNEKLTEESITDKDEEEMTEEEKMKGVLKGDDLLEEIFSRLRGFITYKAEGDINYLWELGISTGDIGTGYENMMKGHLEVDEEKLKQIVEEDPNKVWEFFGGENGFATQLDDYLWELVKFNGRIDQVAGISGRIEREQRFLATQIASWIERLSKREQELWRKFSVMEEVISQLQSQGSWISQALQGSSNK”, for which the “soluble on expression in E. coli” value is “not soluble”.

Take “MSLETQDHTLYVLLGPTGVGKTDLSLDIAERLGSPIISADSRQIFRELPIGTAAPTPEQRARVPHLFVGTHSVRDYYSAGMYEVEVLEALKELFRKYRGVLLTGGSMMYIDAVCRGIDDIPDPFPEVREELYARYAAEGLDGILAQLRLLDPDYYAKVDRRNYKRVIHGLEICLSTGRPFSSFHRHEAKERPFRIVKIGLYREREELCKRIDARVLEMMEQGLEEEARAVYPLRHLNALNTVGYKEMFEYFDGSIDRAEAVRRIQRNSRVYARKQMTWFRRDSTIRWFHPEADKGTVLTLVTEGHHHHHH”: the “soluble on expression in E. coli” value was “soluble”.

Regarding “MKRTIFLLMSILLLLTACGDGHKQTSSDKEQSEHKDNHNKNQVKQIATDKKVQGDNYRTILPFKESQARGLLQDNMANGYNGEDFESGLLELSKEIFPTNKYLYQDGQYLDKKTINAYLDPKYTKKEIDKMSEKEKKSKNANENLGLNPSHNGETDEEKIAKNSPAYLSNILEQDFYGNSDSKGKNIKGMTIGLAMNSVYYYKKEKDGETFSKDLSDKEIEKQGKQMASEMLSRLRENSDLKDIPIHFAIYKQSSQDSITPGEFIVGTTVEEGKTKINSWDNINEKAALIPSSTAADYDETLNNNFKQFNDNLQSYFSNFTQAVGKVKFVNKKAKQLTVDLPIDYYGQAETIGITQYVTEQAEKYFDKLDEYEIRIKDGNTPRALISKTKDDKEPQVHIYHN”, the “soluble on expression in E. coli” value is listed as “not soluble”.

Take “MGSDKIHHHHHHMKNAMLVLCVFLGLSACADRDLMPIVPEAVEIGTPYTVFSTTTRAQEADGTYGFRRSEQLRMMEMTVTIPPNHSPGELSYRYKNPDPHKNFAIAEELPVASVSDLRARFLREQRENNWPLREVTIFVHGYNSTHPETAYRSAQMAHDVELPGSLVMYSWPSRGRAFGYAYDIDSMLFARDGLEETVRRVKQAGAERIILVAHSMGTALAMEMLRQADLRNPGWAARTLNGGVILISPDLDVDVFESQMMDLKQVPQPFGVMVSEKDHILNISGRLRGTSEGERLGNIKSAERLMKWPIEVIDLTAFNADAASGHFVAATSPSLLAVIRSASNVSRLFGPVDPTLFQQILPQSQTIVTDHGKLMLARQQRQEER”: the “soluble on expression in E. coli” value is on record as “not soluble”.

Take “MGSDKIHHHHHHMSLSYKEMHQTLMEELRLYHYPVAVKFFFDDEELATFKEKAEFYVPVKPMTFCQWELAARMKGQTVLATREDLGCSNALVSFGWKDIDDNEIKSHMKYVRSIEQAEKFVRSKPRLDMGSVKAIAVGPLGDAIVAPSVVHFYCDNMQSYHLAVDYMAAMDQHPLRTNVTMNSSACGGTVFSFLEKTANMLPACSGSYNAGKTERGEINFMIPGEHIEATVERLLERKRNLGSSAITRPGDGFPGADVCKNCPLIIFKKEK”: the “soluble on expression in E. coli” value was “not soluble”.

For “MGSDKIHHHHHHLEQQAIVANNLANASTTGFRAQLATFRAVPMSFGDGSSINDNTTRTFVLSSTPGADYTPGPIQQTGNPLDVAIQGPGWLAVQTADGGEAYTRAGNLHIDENGQLVNATNQVVLGNGGPVSVPPGAEITIGKDGTVSALTPGDPPTAVVTVDQLKLVNPDPQTMTRGDDGLFRTGDGNPADADPTVTLAPASLEGSNVNPVSAMVSMITNARQFQMQTKLLESADKNDQSANQLLSFS”, the “soluble on expression in E. coli” value is “not soluble”.

Consider “MPSTLSEELVGKYLAAQYQVWIDTSVVTLQIGCQSAPLAALLQATGNRSAVYVTACNPASEVATSQENQSAMARLYERLACYSNHIYRGTGIDPSGEWPAEESLLALGIDLSIAKKIGDEFGQNAIVWIDSAAIPHLVLLC”, for which the “soluble on expression in E. coli” value is given as “not soluble”.

For the sequence “THSEEEIKIIASESQKGGVLDEFETEIIRNAVDFSDTVAKEIMTPRKDMICLNKQKSYEENMQIICEHKHTRFPYIDGSKDTILGMIHIRDIIQNELNHKSQNLDTFVKPLILVPENISISKVLVMMNKERSHTALVVDEYGGTAGILTMEDIMEEIIGEIKSEHEEDSYKKLA”, the “soluble on expression in E. coli” value is listed as “soluble”.

As to “AIAAHVSSETQDVSPKDELTASEASTRSPLCEHTFPGDSDLRSMIEEHAFQVLSQGSLLESPSYTVCVSEPDKDDDFLSLNFPRKLWKIVESDQFKSISWDENGTCIVINEELFKKEILETKAPYRIFQTDAIKSFVRQLNLYGFSKIQQNFQRSAFLATFLSEEKESSVLSKLHVFVFHHSLFGATFGEHHFQPCPLPSGNKAPISTWSGDSWLL”, the “soluble on expression in E. coli” value is listed as “soluble”.

On to “MGRWWRYKWITFHPSLTQHWLWYAYNTKTGGVLAYTFGPRNDETCRELLALLTPFCIGMVTSDDWGSYAREVPKEKHLTGKIFTQRIARNNRTLRTRIKRLARKTICFSRSVEIHEKVIGSFIEKHMFYLEHHHHHH”, for which the “soluble on expression in E. coli” value is recorded as “soluble”.

“MSLATIYDVAKAAGVSPKTVSRVLNDDAPVNESTRQAVNEAIAALDYLPSQAARMMRSSRSRLIGLITGAISQEIGPAVQSGLPEMNIVQAIQREMSAQGKILMISDTGGRADAAPVLARTFAQHRVEGLIYVADHHREIEMDLTSGNCPVVLVNCYDAAATPCVLPDDEAGEAALVARLIEAGHRRIGFLPPDRTQPAARLRLDGYRTALAAAGLAYDPDLVAHVHDPDADRARALLTEALDALLSLDAPPSVICCTNDEMAMRLYGLLRSRGLRVPDDISVAGYDDHKTISEMLYPQLTTVVLPYSEMGRQAARLMLELIEGKPLASPGPTLVDGPVVWRSSVTEGHHHHHH”: the “soluble on expression in E. coli” value was “soluble”.

For the sequence “MKKRFIYHDEKSNKFWWIDYEGDSLAVNYGKVGSIGKFQTKEFDNEEQCLKEASKLIAAKMKKGYQEDPKFNFMDRYYFDDEEIGLHVKTSHPNFQCHFTDPLYMCCWDEESPFGSDEGADALNVLENSLRKEPDLDCADFPQMLIETMWGMKYIAMDSILEEDVRAQLLVDEMSTIQSNMITYATAFGQIKVMGKISHKLKKMGLNALARHQLTAKILQWGDGQDSPILQKMIDDLTAFPHENLEHHHHHH”, the “soluble on expression in E. coli” value is “soluble”.

As for “MFCTFFEKHHRKWDILLEKSTGVMEAMKVTSEEKEQLSTAIDRMNEGLDAFIQLYNESEIDEPLIQLDDDTAELMKQARDMYGQEKLNEKLNTIIKQILSISVSEEGEKE”, the “soluble on expression in E. coli” value is listed as “soluble”.

Turning to “MSLSQSLWQRLFNHRQQTKQAVLILGSGRSGTSVMTKCVNLMGISLGTDNLLAPSKRINPKGYFENKDVINIHKSLGSRIRYRPAFKDYYDSPKIKKDRAALTTYLRNFFENEQYLAIKDPRMNDYIELWQRVLADVEVQPAEIVLLRNPMDVVNSNERAWHRDTTLAMRQWQVRTLLSLRDTDREHRILVTYEDLFGQTLTTLKRIATQFNLPWTSDEAALQAQIDDFIDPALQKSDSGENLADFEARTDVKPDVKALYLLGRQAAADPDYFASAEFQQRIDEMTDEYLAKYGALYRDFNEGHHHHHH”, the “soluble on expression in E. coli” value is recorded as “soluble”.

For the sequence “MNELLAEMAAVSSRRKQSKPRRMSGEGDAMMSPIDLSTKSFDENNCEKGAGGALPLEDRSNILPHFSVPFANPQQFLSLCAQLGNSSSRNVSSTASTTSSCPIQSCSQSFSSPAALTWHVLDAHEDEQEIFSCDVCTTTFSNGQDIREHKCQKTLASRSTSVPPSTIPSSVCFLSTPTTPCLQFSINESIGTSEIREEDEEEDMDVEDGEHVANQLFGHLLQKSDDKSKMASLFNHAFPPFAAFPNMPPPFLMRQPFDPRADVFAAGRHDNDDDWEALMEISTSDEAEKIRALVGDKAVPTTDPNQCILCRRVLSCKSALQMHYRTHTGERPFKCKICQRAFTTKGNLKTHMGVHRSKHSFRGLPISLPPQLAAMHQHQHQIAPPQRIHIHNPPTSAASAAAAVAQIQASQQCPICQQRFLNAGELAVHITEHRNSLTQPPRVMPTPTTTRVQTFPFVPFFTTPPSLNATDMSTQFNLANILSAQLKNDSSPNTDTSSVEEKITRDDPPKMASLSPSNSSDSSSSVRQDILESSEFEEKLKKLEEPPILEQQVSTTPNPKNENPLLAMQKMWAETEPPPPRQMPVLSKHQCGVCFKHFSSSSALQIHMRTHTGDKPFKCDMCGRAFTTRGNLKVHMGTHSWQQSPSRRGRRIFDVASSVTEKPMLQSPILPTSGAPGASPLAMLGPNGLSGLEMMMMLWRTVCSVCQKVCQSPNELEQHLKEHLNNGSSAAPTPLASAATPPPS”, the “soluble on expression in E. coli” value is reported as “not soluble”.

Turning to “MNILLANPRGFCAGVDRAISIVELALEVHGAPIYVRHEVVHNRFVVDDLKAKGAIFVEELDEVPDSAIVIFSAHGVSQAVRQEAKRRGLKVFDATCPLVTKVHMQVARASKKGTKAILIGHQGHPEVIGTMGQYYNEQAGIFLVETVEDIANLPIHHHEDLTFMTQTTLSVDDTSGMIEALKNKYPAIQGPRKNDICYATTNRQQAVRELAKQAQLVLVVGSKNSSNSNRLAELASRMGVLAKLIDGPQDILPEWLDNVETIGITAGASAPEILVQSVVAHLQTLGATSVANLVGCEENMVFEVPKELRVREVKMAGDPLEHHHHHH”, the “soluble on expression in E. coli” value was “not soluble”.

With “MRFFKHYAPSMIAKHISRLFNGKIHIHGIGEFRFKDGQLVAPTEAEREHYKMVKEINSEITRLKMAYLEHHHHHH”, the “soluble on expression in E. coli” value is “not soluble”.

Take “MSRHLTFHIITNVPYSNLNRDDSGTPKRVSLGGALRALHSSQSIKRGIRTKYELASLDTSIRSGKLVEEVVRVGLDLKPEVDEKLLRKGAAKIIGSLTKGESSEGESARSAWMSREEITTAAQTVIDGQEDSDFIQDNRTGSLAIAAFGRMFANAPKKNTEAALAVSPGVTTHAVTIETDYFSTVDDVREREHDSGATFLGVARYVNGTFYRTVSIDKEQLRESWSGFGQEESVDNLRELIKAIVYGAPRGKENSTAPYTLPSLVFAEEQHYRTAYSFETPVLVGKDGGFEFPTICELDRQFARARSFDKGNFGPLEVVSGTAVLEDEQFEGVQRSDLNGLIEAVVNWVTND”: the “soluble on expression in E. coli” value was “not soluble”.

Take “MGSDKIHHHHHHMRILVTNDDGIQSKGIIVLAELLSEEHEVFVVAPDKERSATGHSITIHVPLWMKKVFISERVVAYSTTGTPADCVKLAYNVVMDKRVDLIVSGVNRGPNMGMDILHSGTVSGAMEGAMMNIPSIAISSANYESPDFEGAARFLIDFLKEFDFSLLDPFTMLNINVPAGEIKGWRFTRQSRRRWNDYFEERVSPFGEKYYWMMGEVIEDDDRDDVDYKAVREGYVSITPIHPFLTNEQCLKKLREVYD”: the “soluble on expression in E. coli” value is listed as “not soluble”.

Turning to “SGRARRAEQDARAVELGLQLVGDNLQVLHAGNPAEPALRAYLGMGLSELHVLEQPDGADALAALTDYIRDSGAQMVLAGSQAETGEGSGMLPFLLAEGLGWPLVTGLAEVESLSNGTALVLQALPRGQRRRLKVRLPFLATVDNAAPAPRQSAYGPAQRGILDVDKIETVIDDLFTAQSLQPAKPRPKRLKVIKAKSGADRMKAATAKASGGSGQVLKGLSPEQSAAAILKLLIDEGVV”, the “soluble on expression in E. coli” value is listed as “not soluble”.
